# Residue numbers refer to the chain shown, from its start.
# T1: human PAC1 receptor (human, UniProt P41586 24-468)
# T1 sequence: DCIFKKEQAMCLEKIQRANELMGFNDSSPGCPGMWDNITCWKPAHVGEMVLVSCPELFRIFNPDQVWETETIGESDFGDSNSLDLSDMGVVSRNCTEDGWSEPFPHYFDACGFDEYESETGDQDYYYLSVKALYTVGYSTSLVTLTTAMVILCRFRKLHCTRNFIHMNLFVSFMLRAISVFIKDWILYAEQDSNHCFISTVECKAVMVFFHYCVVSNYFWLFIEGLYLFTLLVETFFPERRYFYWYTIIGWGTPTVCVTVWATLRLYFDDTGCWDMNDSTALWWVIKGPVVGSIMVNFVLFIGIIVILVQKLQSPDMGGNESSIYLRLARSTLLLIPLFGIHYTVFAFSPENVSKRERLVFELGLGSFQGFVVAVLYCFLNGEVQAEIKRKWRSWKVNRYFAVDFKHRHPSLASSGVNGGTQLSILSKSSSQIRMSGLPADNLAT
# B1: iPS:454823 (bispecific antibody, human IgG1, kappa, lambda, N297G)
# light 1: QSVLTQPPSVSAAPGQKVTISCSGSRSNIGIKAVSWYQQLPGTAPKLLIYDNNKRPSGIPDRFSGSKSGTSATLGITGLQTGDEADYYCGTWDSRLSAVVFGGGTKLTVLGQPKAAPSVTLFPPSSEELQANKATLVCLISDFYPGAVTVAWKADSSPVKAGVETTTPSKQSNNKYAAKSYLSLTPEQWKSHRSYSCQVTHEGSTVEKTVAPTECS
# heavy 1: QVQLVESGGGVVQPGRSLRLSCAASGFTFSSFGMHWVRQAPGKGLEWVAVISFDGSIKYSVDSVKGRFTISRDNSKNTLFLQMNSLRAEDTAVYYCARDRLNYYESSGYYHYKYYGMAVWGQGTTVTVSSASTKGPSVFPLAPSSKSTSGGTAALGCLVKDYFPEPVTVSWNSGALTSGVHTFPAVLQSSGLYSLESVVTVPSSSLGTQTYICNVNHKPSNTKVDKKVEPKSCDKTHTCPPCPAPELLGGPSVFLFPPKPKDTLMISRTPEVTCVVVDVSHEDPEVKFNWYVDGVEVHNAKTKPCEEQYGSTYRCVSVLTVLHQDWLNGKEYKCKVSNKALPAPIEKTISKAKGQPREPQVYTLPPSRKKMTKNQVSLTCLVKGFYPSDIAVEWESNGQPENNYKTTPPVLKSDGSFFLYSKLTVDKSRWQQGNVFSCSVMHEALHNHYTQKSLSLSPGK
# light 2: EIVLTQSPATLSLSPGERATLSCRASKSVGRSLHWYQQKPGQAPRLLIKYASQSLSGIPARFSGSGSGTDFTLTISSLEPEDFAVYYCHQSSRLPFTFGPGTKVDIKRTVAAPSVFIFPPSDEQLKSGTASVVCLLNNFYPREAKVQWKVDNALQSGNSQESVTEQDSKDSTYSLESTLTLSKADYEKHKVYACEVTHQGLSSPVTKSFNRGEC
# heavy 2: not shown
# B2: iPS:454831 (bispecific antibody, human IgG1, kappa, lambda, N297G)
# light 1: B1 light 1
# heavy 1: B1 heavy 1
# light 2: B1 light 2 with K27Q
# heavy 2: not shown
# B3: iPS:454833 (bispecific antibody, human IgG1, kappa, lambda, N297G)
# light 1: B1 light 1
# heavy 1: B1 heavy 1
# light 2: B1 light 2
# heavy 2: not shown
# B4: iPS:454829 (bispecific antibody, human IgG1, kappa, lambda, N297G)
# light 1: B1 light 1
# heavy 1: B1 heavy 1
# light 2: B1 light 2 with K27Q
# heavy 2: not shown
# B5: iPS:454827 (bispecific antibody, human IgG1, kappa, lambda, N297G)
# light 1: B1 light 1
# heavy 1: B1 heavy 1
# light 2: B1 light 2 with K27Q
# heavy 2: not shown
# B6: iPS:454835 (bispecific antibody, human IgG1, kappa, lambda, N297G)
# light 1: B1 light 1
# heavy 1: B1 heavy 1
# light 2: B1 light 2
# heavy 2: not shown
# B7: iPS:454837 (bispecific antibody, human IgG1, kappa, lambda, N297G)
# light 1: B1 light 1
# heavy 1: B1 heavy 1
# light 2: B1 light 2 with S28A, R31W
# heavy 2: not shown
# B8: iPS:454825 (bispecific antibody, human IgG1, kappa, lambda, N297G)
# light 1: B1 light 1
# heavy 1: B1 heavy 1
# light 2: B1 light 2
# heavy 2: not shown
# Target: T1, human PAC1 receptor
# Assay: cell-based or functional assay
Fold-improvement over 29G4v22 Ab,IC50,Binder
8.3 fold,0.8 nM,B1
7.6 fold,0.9 nM,B2
9 fold,0.76 nM,B3
9.8 fold,0.7 nM,B4
8.9 fold,0.75 nM,B5
9.3 fold,0.73 nM,B6
6.8 fold,1.01 nM,B7
8.4 fold,0.79 nM,B8

# Target: human CGRP receptor (human, UniProt Q16602 23-461; O60894 27-148)
# Assay: cell-based or functional assay
# Sequence of human CGRP receptor (Q16602 23-461 limits assumed, chain 1 of 2): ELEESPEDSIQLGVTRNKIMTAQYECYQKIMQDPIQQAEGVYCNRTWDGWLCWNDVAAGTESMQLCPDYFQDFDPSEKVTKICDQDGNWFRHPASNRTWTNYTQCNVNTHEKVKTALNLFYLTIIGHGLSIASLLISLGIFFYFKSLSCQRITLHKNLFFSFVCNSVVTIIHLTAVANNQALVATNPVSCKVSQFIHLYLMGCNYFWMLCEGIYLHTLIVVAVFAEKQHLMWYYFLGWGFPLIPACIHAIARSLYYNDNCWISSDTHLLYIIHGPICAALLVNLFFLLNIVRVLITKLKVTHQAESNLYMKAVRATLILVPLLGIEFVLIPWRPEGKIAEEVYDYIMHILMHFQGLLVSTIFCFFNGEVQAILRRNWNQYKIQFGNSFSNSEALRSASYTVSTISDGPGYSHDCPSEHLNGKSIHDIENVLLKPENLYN
# Sequence of human CGRP receptor (O60894 27-148 limits assumed, chain 2 of 2): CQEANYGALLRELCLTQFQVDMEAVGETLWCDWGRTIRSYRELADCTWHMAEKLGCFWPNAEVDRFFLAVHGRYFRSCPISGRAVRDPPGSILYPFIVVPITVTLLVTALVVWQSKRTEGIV
Fold-improvement over 4E4 Ab,IC50,Binder
1.5 fold,0.39 nM,B1
1.7 fold,0.38 nM,B2
2.6 fold,0.24 nM,B3
1.8 fold,0.36 nM,B4
1.7 fold,0.34 nM,B5
2.2 fold,0.28 nM,B6
1.4 fold,0.45 nM,B7
2 fold,0.29 nM,B8

# From patent US20220363770A1 (Amgen, published 2022)
